In patent publication US20030162712A1 one finds Percent Inhibition of Antibody Binding by Ang2 data, which are given here for one substance.

This assay concerns the target naturally occurring Tek as expressed on human endothelial cells (human) (UniProt Q02763). The experiment in a line: flow cytometry on HMVEC-d, mAb 5 µg/ml, competitor human Ang2 10 µg/ml; negative control antibody. Background: Flow cytometry measures light scatter and fluorescence of single cells or particles in a stream.
Sequence of UniProt Q02763 (Q02763 23-1124): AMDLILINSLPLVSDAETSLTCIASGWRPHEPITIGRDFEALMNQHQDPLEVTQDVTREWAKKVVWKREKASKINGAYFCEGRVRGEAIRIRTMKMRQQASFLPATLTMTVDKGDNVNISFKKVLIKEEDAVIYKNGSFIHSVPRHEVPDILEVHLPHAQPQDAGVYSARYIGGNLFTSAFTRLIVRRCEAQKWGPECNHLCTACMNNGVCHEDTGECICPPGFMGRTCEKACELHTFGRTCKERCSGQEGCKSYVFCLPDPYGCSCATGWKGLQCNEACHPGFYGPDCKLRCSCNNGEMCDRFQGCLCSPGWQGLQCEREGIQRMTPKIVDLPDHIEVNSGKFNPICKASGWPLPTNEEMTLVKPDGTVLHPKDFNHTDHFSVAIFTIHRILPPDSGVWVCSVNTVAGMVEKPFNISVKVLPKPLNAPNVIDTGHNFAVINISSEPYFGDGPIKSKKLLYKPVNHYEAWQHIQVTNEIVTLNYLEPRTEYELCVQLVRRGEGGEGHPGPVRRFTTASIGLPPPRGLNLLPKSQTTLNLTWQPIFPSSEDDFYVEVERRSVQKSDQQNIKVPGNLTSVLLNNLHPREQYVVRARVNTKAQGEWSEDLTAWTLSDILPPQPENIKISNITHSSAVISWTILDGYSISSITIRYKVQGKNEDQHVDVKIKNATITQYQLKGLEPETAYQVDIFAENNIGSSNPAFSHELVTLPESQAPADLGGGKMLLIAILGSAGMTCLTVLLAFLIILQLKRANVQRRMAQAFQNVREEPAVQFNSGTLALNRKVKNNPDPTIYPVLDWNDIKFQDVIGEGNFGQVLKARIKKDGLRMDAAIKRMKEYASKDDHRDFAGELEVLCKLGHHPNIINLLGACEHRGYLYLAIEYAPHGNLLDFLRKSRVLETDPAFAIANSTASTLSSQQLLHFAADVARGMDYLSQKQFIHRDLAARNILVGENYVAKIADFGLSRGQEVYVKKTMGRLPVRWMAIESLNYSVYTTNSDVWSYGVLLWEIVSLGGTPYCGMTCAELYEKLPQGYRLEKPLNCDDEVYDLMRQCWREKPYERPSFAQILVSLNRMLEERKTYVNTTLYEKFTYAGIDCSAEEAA

In turn, “IgG1 negative control mAb (MOPC21) (antibody)” displayed a Percent Inhibition of Antibody Binding by Ang2 of 0%.
